Values joined by “and” are separate entries in the source; they are usually repeats but may differ in a detail not shown here. Equal entries are not always repeated.

This is an account of results in paper PMC4449314.

The target of test [1] is HA-tagged human DAP12 (full length, both native cysteines), in 293T cells (human), O43914. Description: non-reducing SDS-PAGE of disulfide-linked products after anti-HA IP. The settings on record: remark: other sources report otherwise.
The target of test [2] is HA-tagged human DAP12 wild type, in vitro translated with ER microsomes (human), O43914. The description is as above. The settings on record: remark: other sources report otherwise.

B1: HA-tagged human DAP12 (full length, both native cysteines), in 293T cells, O43914 22-113 (natural protein)
chain: LRPVQAQAQSDCSCSTVSPGVLAGIVMGDLVLTVLIALAVYFLGRLVPRGRGAAEAATRKQRITETESPYQELQGQRSDVYSDLNTQRPYYK
In the case of B1, the stoichiometry N in test [1] was 2 and 3 and 4.

B2: HA-tagged human DAP12 wild type, in vitro translated with ER microsomes, O43914 22-113 (natural protein)
chain: LRPVQAQAQSDCSCSTVSPGVLAGIVMGDLVLTVLIALAVYFLGRLVPRGRGAAEAATRKQRITETESPYQELQGQRSDVYSDLNTQRPYYK
modifications: here or on the partner: 35S-methionine/cysteine labelled; 35S-methionine/cysteine labelled
B2: the stoichiometry N in test [2] was 3 and 4.

As usually defined, the stoichiometry N is the number of molecules, sites or subunits per partner or assembly.
